Measured values reported in patent publication US20240182536A1 (MURAL ONCOLOGY, published 2024).
Residue numbers refer to the chain shown, from its start. Names and notes keep the numbering of the source.

T1: interleukin 18 binding protein (IL-18BP) (UniProt O95998 31-194)
T1 sequence (looked up): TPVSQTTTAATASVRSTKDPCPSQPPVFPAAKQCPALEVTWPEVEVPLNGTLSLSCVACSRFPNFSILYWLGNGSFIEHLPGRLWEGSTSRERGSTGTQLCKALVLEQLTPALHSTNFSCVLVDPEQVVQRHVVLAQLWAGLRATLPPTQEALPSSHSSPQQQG

T2: IL-18 receptors on HEK-Blue IL-18 reporter cells (UniProt Q13478 19-541; O95256 20-599, limits assumed)
T2 sequence (looked up) 1: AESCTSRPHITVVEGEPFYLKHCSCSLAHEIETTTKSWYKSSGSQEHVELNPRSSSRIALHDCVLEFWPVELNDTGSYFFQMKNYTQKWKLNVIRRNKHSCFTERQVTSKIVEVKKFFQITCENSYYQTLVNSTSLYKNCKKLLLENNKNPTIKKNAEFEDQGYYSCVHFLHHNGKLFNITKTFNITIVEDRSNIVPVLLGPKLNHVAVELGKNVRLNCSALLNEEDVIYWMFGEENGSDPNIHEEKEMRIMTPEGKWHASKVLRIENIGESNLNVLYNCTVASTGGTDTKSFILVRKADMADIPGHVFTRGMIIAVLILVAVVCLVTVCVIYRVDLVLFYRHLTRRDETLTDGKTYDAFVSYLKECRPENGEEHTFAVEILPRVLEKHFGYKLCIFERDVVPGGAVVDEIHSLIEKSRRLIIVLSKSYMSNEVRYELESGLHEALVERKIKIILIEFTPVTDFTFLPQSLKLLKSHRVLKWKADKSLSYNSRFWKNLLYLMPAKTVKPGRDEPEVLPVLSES
T2 sequence (looked up) 2: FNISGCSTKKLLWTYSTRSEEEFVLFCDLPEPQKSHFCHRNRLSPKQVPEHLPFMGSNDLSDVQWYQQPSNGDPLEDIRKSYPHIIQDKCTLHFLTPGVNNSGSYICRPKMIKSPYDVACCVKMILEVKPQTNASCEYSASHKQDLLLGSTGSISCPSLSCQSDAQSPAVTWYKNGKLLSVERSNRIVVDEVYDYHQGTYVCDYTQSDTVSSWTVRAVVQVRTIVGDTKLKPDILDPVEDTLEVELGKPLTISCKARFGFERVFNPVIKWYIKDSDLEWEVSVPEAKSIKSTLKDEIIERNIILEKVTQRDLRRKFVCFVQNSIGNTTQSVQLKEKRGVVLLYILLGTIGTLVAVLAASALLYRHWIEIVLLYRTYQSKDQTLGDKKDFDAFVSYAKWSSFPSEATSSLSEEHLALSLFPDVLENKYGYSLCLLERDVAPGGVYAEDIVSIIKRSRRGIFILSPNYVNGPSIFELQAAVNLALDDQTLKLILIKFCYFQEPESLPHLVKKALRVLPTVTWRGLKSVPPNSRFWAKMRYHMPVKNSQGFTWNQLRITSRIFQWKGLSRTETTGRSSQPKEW

B1: IL-18 variant K53H, S55M, Q56H (ligand)
chain: YFGKLESKLSVIRNLNDQVLFIDQGNRPLFEDMTDSDMRDNAPRTIFIISMYHDMHPRGMAVTISVKSEKISTLSSENKIISFKEMNPPDNIKDTKSDIIFFQRSVPGHDNKMQFESSSYEGYFLASEKERDLFKLILKKEDELGDRSIMFTVQNED
B2: IL-18 variant K53T, S55G, P107A, H109Q (ligand)
chain: B1 chain with H53T, M55G, H56Q, P107A, H109Q
B3: IL-18 variant K53D, S55T, H109I (ligand)
chain: B1 chain with H53D, M55T, H56Q, H109I
B4: IL-18 variant S36W, D37E, D40F, N41I, K53D, S55N (ligand)
chain: B1 chain with S36W, D37E, D40F, N41I, H53D, M55N, H56Q
B5: IL-18 variant K53H, S55G (ligand)
chain: B1 chain with M55G, H56Q
B6: IL-18 variant K53D, S55E (ligand)
chain: B1 chain with H53D, M55E, H56Q
B7: IL-18 variant K53H, S55M, T63S (ligand)
chain: B1 chain with H56Q, T63S
B8: IL-18 variant K53D, S55N, H109I (ligand)
chain: B1 chain with H53D, M55N, H56Q, H109I
B9: IL-18 variant K53H, S55M (ligand)
chain: B1 chain with H56Q
B10: IL-18 variant T34E, N41D, K53N, S55R (ligand)
chain: B1 chain with T34E, N41D, H53N, M55R, H56Q
B11: IL-18 variant K53H, S55Q (ligand)
chain: B1 chain with M55Q, H56Q
B12: IL-18 variant K53L, S55E (ligand)
chain: B1 chain with H53L, M55E, H56Q
B13: IL-18 variant K53S, S55F, T63S, R104K, H109Y (ligand)
chain: B1 chain with H53S, M55F, H56Q, T63S, R104K, H109Y

Biological target: T1, interleukin 18 binding protein (IL-18BP)
Experiment: cell-based or functional assay

Row | Binder | HEK-Blue activity, +100 nM BP, DF-10000 | HEK-Blue activity, +100 nM BP, DF-100,000 | HEK-Blue activity, +100 nM BP, DF-1,000,000 | Ratio (-BP/+BP), DF-10000 | Ratio (-BP/+BP), DF-100,000 | Ratio (-BP/+BP), DF-1,000,000
1 | B1 | 0.15 | 0.1 | 0.09 | 0.97 | 0.96 | 0.92
2 | B2 | 0.12 | 0.16 | 0.12 | 1.1 | 0.63 | 0.87
3 | B3 | 0.12 | 0.09 | 0.09 | 1.1 | 0.97 | 0.98
4 | B4 | 0.2 | 0.13 | 0.12 | 0.68 | 1.07 | 1.05
5 | B5 | 0.12 | 0.09 | 0.08 | 1.08 | 1.04 | 1.02
6 | B6 | 0.11 | 0.09 | 0.08 | 1.22 | 1.07 | 1.08
7 | B7 | 0.18 | 0.12 | 0.11 | 0.72 | 0.83 | 0.83
8 | B8 | 0.1 | 0.09 | 0.09 | 1.28 | 1.42 | 0.99
9 | B9 | 0.12 | 0.09 | 0.09 | 1.12 | 1.03 | 1.09
10 | B10 | 0.1 | 0.13 | 0.09 | 1.42 | 0.74 | 1.05
11 | B11 | 0.14 | 0.1 | 0.1 | 1.03 | 1.03 | 0.91
12 | B12 | 0.12 | 0.09 | 0.09 | 1.12 | 1.07 | 1.01
13 | B13 | 0.13 | 0.09 | 0.09 | 1.03 | 1 | 0.99

Biological target: T2, IL-18 receptors on HEK-Blue IL-18 …
Experiment: cell-based or functional assay

Row | Binder | HEK-Blue activity, No BP, DF-10000 | HEK-Blue activity, No BP, DF-100,000 | HEK-Blue activity, No BP, DF-1,000,000
14 | B1 | 0.14 | 0.09 | 0.08
15 | B2 | 0.13 | 0.1 | 0.11
16 | B3 | 0.13 | 0.09 | 0.08
17 | B4 | 0.13 | 0.14 | 0.13
18 | B5 | 0.13 | 0.1 | 0.08
19 | B6 | 0.13 | 0.09 | 0.09
20 | B7 | 0.13 | 0.1 | 0.09
21 | B8 | 0.13 | 0.12 | 0.09
22 | B9 | 0.13 | 0.1 | 0.09
23 | B10 | 0.14 | 0.1 | 0.09
24 | B11 | 0.14 | 0.1 | 0.09
25 | B12 | 0.14 | 0.1 | 0.09
26 | B13 | 0.14 | 0.09 | 0.09
